Source: the supplement of paper PMC11246515
± gives the standard deviation of the averaged measurements.

Assay: total protein half-life in vivo (active degradation + dilution); higher = more stable protein
[1] = wild type E. coli NCM3722, growth: C-lim chemostat, doubling time 3 h
[2] = wild type E. coli NCM3722, growth: C-lim chemostat, doubling time 6 h
[3] = wild type E. coli NCM3722, growth: C-lim chemostat, doubling time 12 h
[4] = E. coli NCM3722 delta-clpP delta-lon delta-hslV, growth: N-lim chemostat, doubling time 6 h
[5] = E. coli NCM3722 delta-clpP, growth: N-lim chemostat, doubling time 6 h
[6] = E. coli NCM3722 delta-hslV, growth: N-lim chemostat, doubling time 6 h
[7] = E. coli NCM3722 delta-lon, growth: N-lim chemostat, doubling time 6 h
[8] = E. coli NCM3722 delta-smpB, growth: N-lim chemostat, doubling time 6 h
[9] = wild type E. coli NCM3722, growth: N-lim chemostat, doubling time 6 h
[10] = wild type E. coli NCM3722, growth: N-lim chemostat, doubling time 12 h
[11] = wild type E. coli NCM3722, growth: P-lim chemostat, doubling time 6 h
[12] = wild type E. coli NCM3722, growth: P-lim chemostat, doubling time 12 h

Sequence	total protein half-life in vivo [1] [h]	total protein half-life in vivo [2] [h]	total protein half-life in vivo [3] [h]	total protein half-life in vivo [4] [h]	total protein half-life in vivo [5] [h]	total protein half-life in vivo [6] [h]	total protein half-life in vivo [7] [h]	total protein half-life in vivo [8] [h]	total protein half-life in vivo [9] [h]	total protein half-life in vivo [10] [h]	total protein half-life in vivo [11] [h]	total protein half-life in vivo [12] [h]
MTDYAISKKSKRSLWIPILVFITLAACASAGYSYWHSHQVAADDKAQQRVVPSPVFYALDTFTVNLGDADRVLYIGITLRLKDEATRSRLSEYLPEVRSRLLLLFSRQDAAVLATEEGKKNLIAEIKTTLSTPLVAGQPKQDVTDVLYTAFILR [P0ABX8]	1.72 ± 0.4	2.16 ± 0.27	3 ± 0.22									
MTEAMKITLSTQPADARWGEKATYSINNDGITLHLNGADDLGLIQRAARKIDGLGIKHVQLSGEGWDADRCWAFWQGYKAPKGTRKVVWPDLDDAQRQELDNRLMIIDWVRDTINAPAEELGPSQLAQRAVDLISNVAGDRVTYRITKGEDLREQGYMGLHTVGRGSERSPVLLALDYNPTGDKEAPVYACLVGKGITFDSGGYSIKQTAFMDSMKSDMGGAATVTGALAFAITRGLNKRVKLFLCCADNLISGNAFKLGDIITYRNGKKVEVMNTDAEGRLVLADGLIDASAQKPEMIIDAATLTGAAKTALGNDYHALFSFDDALAGRLLASAAQENEPFWRLPLAEFHRSQLPSNFAELNNTGSAAYPAGASTAAGFLSHFVENYQQGWLHIDCSATYRKAPVEQWSAGATGLGVRTIANLLTA	3.45 ± 0.34	6.53 ± 0.15	10.4 ± 0.37	5.81 ± 0.29	5.46 ± 0.11	5.706 ± 0.054	5.758 ± 0.022	5.22 ± 0.19	5.61 ± 0.15	10.4 ± 1.1	5.543 ± 0.044	12.5 ± 0.4
MTEAQRHQILLEMLAQLGFVTVEKVVERLGISPATARRDINKLDESGKLKKVRNGAEAITQQRPRWTPMNLHQAQNHDEKVRIAKAASQLVNPGESVVINCGSTAFLLGREMCGKPVQIITNYLPLANYLIDQEHDSVIIMGGQYNKSQSITLSPQGSENSLYAGHWMFTSGKGLTAEGLYKTDMLTAMAEQKMLSVVGKLVVLVDSSKIGERAGMLFSRADQIDMLITGKNANPEILQQLEAQGVSILRV [P0A9W0]	3.08 ± 0.11	6 ± 0.48	10.6 ± 1.7	5.74 ± 0.06	5.84 ± 0.28	6.01 ± 0.41	5.66 ± 0.8	5.95 ± 0.36	5.68 ± 0.2	10.9 ± 0.72	6.75 ± 1.5	13.3 ± 0.25
MTEKKYIVALDQGTTSSRAVVMDHDANIISVSQREFEQIYPKPGWVEHDPMEIWATQSSTLVEVLAKADISSDQIAAIGITNQRETTIVWEKETGKPIYNAIVWQCRRTAEICEHLKRDGLEDYIRSNTGLVIDPYFSGTKVKWILDHVEGSRERARRGELLFGTVDTWLIWKMTQGRVHVTDYTNASRTMLFNIHTLDWDDKMLEVLDIPREMLPEVRRSSEVYGQTNIGGKGGTRIPISGIAGDQQAALFGQLCVKEGMAKNTYGTGCFMLMNTGEKAVKSENGLLTTIACGPTGEVNYALEGAVFMAGASIQWLRDEMKLINDAYDSEYFATKVQNTNGVYVVPAFTGLGAPYWDPYARGAIFGLTRGVNANHIIRATLESIAYQTRDVLEAMQADSGIRLHALRVDGGAVANNFLMQFQSDILGTRVERPEVREVTALGAAYLAGLAVGFWQNLDELQEKAVIEREFRPGIETTERNYRYAGWKKAVKRAMAWEEHDE [P0A6F3]	3.28 ± 0.085	5.398 ± 0.033	9.61 ± 1.5		6.74 ± 0.14	6.32 ± 0.39		5.64 ± 0.067	5.983 ± 0.059	12.7 ± 0.32	6.31 ± 0.66	13 ± 0.85
MTELAQLQASAEQAAALLKAMSHPKRLLILCMLSGSPGTSAGELTRITGLSASATSQHLARMRDEGLIDSQRDAQRILYSIKNEAVNAIIATLKNVYCP												9.02
MTEPHVAVLSQVQQFLDRQHGLYIDGRPGPAQSEKRLAIFDPATGQEIASTADANEADVDNAVMSAWRAFVSRRWAGRLPAERERILLRFADLVEQHSEELAQLETLEQGKSIAISRAFEVGCTLNWMRYTAGLTTKIAGKTLDLSIPLPQGARYQAWTRKEPVGVVAGIVPWNFPLMIGMWKVMPALAAGCSIVIKPSETTPLTMLRVAELASEAGIPDGVFNVVTGSGAVCGAALTSHPHVAKISFTGSTATGKGIARTAADHLTRVTLELGGKNPAIVLKDADPQWVIEGLMTGSFLNQGQVCAASSRIYIEAPLFDTLVSGFEQAVKSLQVGPGMSPVAQINPLVSRAHCDKVCSFLDDAQAQQAELIRGSNGPAGEGYYVAPTLVVNPDAKLRLTREEVFGPVVNLVRVADGEEALQLANDTEYGLTASVWTQNLSQALEYSDRLQAGTVWVNSHTLIDANLPFGGMKQSGTGRDFGPDWLDGWCETKSVCVRY	3.12 ± 0.38	5.23 ± 0.96	8.67 ± 0.33	4.33							5.34 ± 0.17	10.3 ± 0.53
MTEPLKPRIDFDGPLEVDQNPKFRAQQTFDENQAQNFAPATLDEAQEEEGQVEAVMDAALRPKRSLWRKMVMGGLALFGASVVGQGVQWTMNAWQTQDWVALGGCAAGALIIGAGVGSVVTEWRRLWRLRQRAHERDEARDLLHSHGTGKGRAFCEKLAQQAGIDQSHPALQRWYASIHETQNDREVVSLYAHLVQPVLDAQARREISRSAAESTLMIAVSPLALVDMAFIAWRNLRLINRIATLYGIELGYYSRLRLFKLVLLNIAFAGASELVREVGMDWMSQDLAARLSTRAAQGIGAGLLTARLGIKAMELCRPLPWIDDDKPRLGDFRRQLIGQVKETLQKGKTPSEK [P0A8R7]	2.96 ± 0.27	4.75 ± 0.28	11.2 ± 0.13	5.42 ± 0.51	5.1 ± 0.24	4.51 ± 0.62	4.85 ± 0.12	4.83 ± 0.29	5.23 ± 0.17	8.5 ± 0.23	5.02 ± 0.48	8.52 ± 0.38
MTEPLTETPELSAKYAWFFDLDGTLAEIKPHPDQVVVPDNILQGLQLLATASDGALALISGRSMVELDALAKPYRFPLAGVHGAERRDINGKTHIVHLPDAIARDISVQLHTVIAQYPGAELEAKGMAFALHYRQAPQHEDALMTLAQRITQIWPQMALQQGKCVVEIKPRGTSKGEAIAAFMQEAPFIGRTPVFLGDDLTDESGFAVVNRLGGMSVKIGTGATQASWRLAGVPDVWSWLEMITTALQQKRENNRSDDYESFSRSI	2.55	4.3 ± 0.26	6.12 ± 0.22	5.34 ± 2.1	3.13 ± 0.27	2.4 ± 0.1	2.67 ± 0.028	2.32 ± 0.11	2.5 ± 0.13	3.59 ± 0.55	3.2 ± 1	6.94 ± 0.087
MTESVARLRGEQLTLGYGKYTVAENLTVEIPDGHFTAIIGPNGCGKSTLLRTLSRLMTPAHGHVWLDGEHIQHYASKEVARRIGLLAQNATTPGDITVQELVARGRYPHQPLFTRWRKEDEEAVTKAMQATGITHLADQSVDTLSGGQRQRAWIAMVLAQETAIMLLDEPTTWLDISHQIDLLELLSELNREKGYTLAAVLHDLNQACRYASHLIALREGKIVAQGAPKEIVTAELIERIYGLRCMIIDDPVAGTPLVVPLGRTAPSTANS	3.78	5.57	> 16					3.69		7.66		
MTETIKVSESLELHAVAENHVKPLYQLICKNKTWLQQSLNWPQFVQSEEDTRKTVQGNVMLHQRGYAKMFMIFKEDELIGVISFNRIEPLNKTAEIGYWLDESHQGQGIISQALQALIHHYAQSGELRRFVIKCRVDNPQSNQVALRNGFILEGCLKQAEFLNDAYDDVNLYARIIDSQ	3.18 ± 0.37	5.79 ± 0.19	8.82 ± 2.3	4.21 ± 0.68	4.2 ± 0.35	3.75 ± 0.27	3.31 ± 0.19	4.22 ± 0.22	4.47	6.48 ± 0.098	5.61 ± 0.16	13.7 ± 0.43
MTFIKGLPLMLLTISLGCNAAVQPDRTRIVFNANDKATSLRIENQSDKLPYLAYSWIENEKGEKSDALLVALPPIQRLEPKATSQVRVVKQASTTQLPGDRETLFFYNMREIPPAPDKSSDHAILQVAIQSRIKLFWRPAALRKKAGEKVELQLQVSQQGNQLTLKNPTAYYLTIAYLGRNEKGVLPGFKTVMVAPFSTVNTNTGSYSGSQFYLGYMDDYGALRMTTLNCSGQCRLQAVEAK				> 8						14.3		
MTGMTNVTKLASEPSGQEFLVFTLGDEEYGIDILKVQEIRGYDQVTRIANTPAFIKGVTNLRGVIVPIVDLRIKFSQVDVDYNDNTVVIVLNLGQRVVGIVVDGVSDVLSLTAEQIRPAPEFAVTLSTEYLTGLGALGDRMLILVNIEKLLNSEEMALLDSAASEVA [P0A964]	1.741 ± 0.013	1.86 ± 0.086	3.67 ± 1.6	5.19 ± 0.61	4.56 ± 0.37	5.25	5.4 ± 0.52	> 8	1.74	2.23	0.859	9.75
MTGQSSSQAATPIQWWKPALFFLVVIAGLWYVKWEPYYGKAFTAAETHSIGKSILAQADANPWQAALDYAMIYFLAVWKAAVLGVILGSLIQVLIPRDWLLRTLGQSRFRGTLLGTLFSLPGMMCTCCAAPVAAGMRRQQVSMGGALAFWMGNPVLNPATLVFMGFVLGWGFAAIRLVAGLVMVLLIATLVQKWVRETPQTQAPVEIDIPEAQGGFFSRWGRALWTLFWSTIPVYILAVLVLGAARVWLFPHADGAVDNSLMWVVAMAVAGCLFVIPTAAEIPIVQTMMLAGMGTAPALALLMTLPAVSLPSLIMLRKAFPAKALWLTGAMVAVSGVIVGGLALLF								4.43 ± 0.43		5.72		
